{
  "source": "paper PMC5501646",
  "key": {"[1]": {"tested_on": "HfqPae (wild type) (Pseudomonas aeruginosa PAO1)", "assay": "MST", "settings": "1 mM Mg2+, 25 C, MST: 10 mM Tris pH 8.0, 40 mM NaCl, 10 mM KCl, 1 mM MgCl2, 0.05% Tween, EMSA: 10 mM Tris-HCl pH 8.0, 10 mM MgCl2, 60 mM NaCl, 10 mM NaH2PO4, 10 mM DTT …"}, "[2]": {"target": "HfqPae (wild type) (Pseudomonas aeruginosa PAO1) (UniProt Q9HUM0)", "assay": "EMSA", "settings": "MST: 10 mM Tris pH 8.0, 40 mM NaCl, 10 mM KCl, 1 mM MgCl2, 0.05% Tween, 25 C; EMSA: 10 mM Tris-HCl pH 8.0, 10 mM MgCl2, 60 mM NaCl, 10 mM NaH2PO4, 10 mM DTT …"}, "[3]": {"target": "HfqPae (wild type) (Pseudomonas aeruginosa PAO1) (UniProt Q9HUM0)", "assay": "MST", "settings": "MST: 10 mM Tris pH 8.0, 40 mM NaCl, 10 mM KCl, 1 mM MgCl2, 0.05% Tween, 25 C; EMSA: 10 mM Tris-HCl pH 8.0, 10 mM MgCl2, 60 mM NaCl, 10 mM NaH2PO4, 10 mM DTT …"}, "[4]": {"target": "HfqPaeY25DFlag Y25D (Pseudomonas aeruginosa PAO1) (UniProt Q9HUM0)", "assay": "EMSA", "settings": "MST: 10 mM Tris pH 8.0, 40 mM NaCl, 10 mM KCl, 1 mM MgCl2, 0.05% Tween, 25 C; EMSA: 10 mM Tris-HCl pH 8.0, 10 mM MgCl2, 60 mM NaCl, 10 mM NaH2PO4, 10 mM DTT …"}},
  "data": [
    {"substance": "CrcZ RNA", "values": [
      {"measurement": "Kd", "setting": "[1]; 30 nM labelled Hfq", "value": 7.4, "unit": "nM"}
    ]},
    {"substance": "GGACUGGUCGCGAGGCCAGCAGGUAAGCUGAGAGACCAAGCAGUCGGACUCUUCAGAUUAUCUCCUCAUCAGGCUAAUCACGGUUUCGACCCGGCACUUUGCCGGGUCUUUUUUUG [PrrF2 sRNA]", "values": [
      {"measurement": "binding", "setting": "[2]", "value": "binds"}
    ]},
    {"substance": "GGGAGCCGGCCUUGCGCCGGCAUAUGCCUUGCAUUUUGCUGAAAACAGAGCGCCAGCAGAGCGCACCCCCAGCCUUGCCGUGUCGAGUGCCGAACCAUGAUGAGGACCCAUCCCGUCGCCGAUCGUGGCGAUCUCCAUGCCGACCACCUGGACCUGGCCGCCG [antR(-95-+67) mRNA fragment]", "values": [
      {"measurement": "Kd", "setting": "[3]", "value": 37.3, "unit": "nM"},
      {"measurement": "binding", "setting": "[4]", "value": "no binding"}
    ]},
    {"substance": "antR(-95-+67) mRNA fragment", "values": [
      {"measurement": "Kd", "setting": "[1]; 20 nM labelled Hfq", "value": 37.3, "unit": "nM"}
    ]}
  ]
}
